# Data reported in the supplement of paper PMC9732359.
# ± gives the uncertainty stated by the source.
# Assay: protein stability index of a GFP-peptide fusion (yeast GPS) (PSI 1-4); higher = more stable; sorted into four equal gates, so the index is relative within each strain
# How it was run: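 The protein stability index of a peptide was calculated by multiplying its read frequency in each gate by that gate's number and adding the products. The peptides were tiled 17-residue stretches of yeast proteins, fused downstream of GFP on a Cherry-expressing plasmid and carried in yeast as a pooled library. Mid-log cultures in leucine-free medium were sorted into four equal gates by GFP/Cherry ratio, and each gate's plasmids were PCR-amplified and Illumina-sequenced.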
Sequence,protein stability index (doa10∆),protein stability index (pdr5∆),protein stability index (san1∆),protein stability index (ubr1∆)
TKYTDDMATGSNDTTAF [SRB8],3.04 ± 0.086,3.14 ± 0.087,3.45 ± 0.057,3.29 ± 0.058
LQGIVIWDSQKFFIMIV [POP4],1.7 ± 0.059,1.91 ± 0.064,2.21 ± 0.076,2.3 ± 0.045
DMGMQQELCYPDENHDN [BRN1],3.22 ± 0.073,3.28 ± 0.06,2.99 ± 0.059,3.33 ± 0.055
LTKAAIVQIDATPFRQW [RPS8A],2.132 ± 0.016,2.453 ± 0.017,2.347 ± 0.021,2.362 ± 0.014
ILQYFEKWISSKNSKLS [SIR3],2.8 ± 0.15,1.48 ± 0.087,2 ± 0.26,1.27 ± 0.083
DYRVLVDKSRKVAHTSY [PRE8],2.81 ± 0.12,2.48 ± 0.13,2.3 ± 0.13,2.08 ± 0.095
VEDFLERRLQTQVYKLG [RPS9A],1.28 ± 0.071,1.45 ± 0.095,1.97 ± 0.27,1.93 ± 0.18
EDEVKVEGPKFTIDAKP [YLR335W/NUP2],3.54 ± 0.15,3.52 ± 0.2,3.45 ± 0.071,
EKLSSEIENLDKELRKT [YIL149C/MLP2],3.12 ± 0.11,3.21 ± 0.12,3.12 ± 0.069,3 ± 0.11
SGLMVILYTSKIVFILD [RRI2],1.76 ± 0.09,1.81 ± 0.049,1.44 ± 0.094,1.69 ± 0.037
YALAAKDRFDIDEKSQF [RPN2],1.73 ± 0.09,2.1 ± 0.13,1.93 ± 0.17,2.66 ± 0.082
SFQLSKIRRAARDLLTR [RPS9A],2.06 ± 0.044,2.24 ± 0.044,2.21 ± 0.045,1.98 ± 0.032
GYLDDSEILIISSLMFD [IRR1],2.79 ± 0.071,2.91 ± 0.06,2.89 ± 0.07,2.75 ± 0.046
PIMLRSKNCYLSEATES [RPB2],1.23 ± 0.075,1.46 ± 0.11,1.1 ± 0.15,1.14 ± 0.061
NELLDLTESQTETYISD [RPN5],3.17 ± 0.073,3.35 ± 0.069,3.12 ± 0.046,3.21 ± 0.069
QQTEKLNPQVADINKNF [RPN2],1.91 ± 0.066,2.42 ± 0.058,2.44 ± 0.07,2.49 ± 0.055
GQIITLFSSRRLQAKRL [RMP1],2.78 ± 0.078,2.76 ± 0.052,2.89 ± 0.051,2.65 ± 0.064
LSSLKSFAIYSSTIDAP [SRB8],1.71 ± 0.038,1.57 ± 0.034,1.83 ± 0.064,1.73 ± 0.038
INVVIKASRKSVGLPSK [ECM29],1.27 ± 0.089,1.7 ± 0.074,1.95 ± 0.24,1.26 ± 0.13
FTSHTRLRQGAAKLRTL [RPL2A],2.03 ± 0.059,1.68 ± 0.044,2.1 ± 0.073,1.95 ± 0.039
EIKGASETPLQKTVNLK [RPN4],3 ± 0.12,3.42 ± 0.13,3.05 ± 0.1,3.14 ± 0.056
LSWCPSRFSPEKLAVSA [YGL100W/SEH1],2.48 ± 0.078,2.57 ± 0.11,2.81 ± 0.14,
AKSLLKLQLGQLYESGN [COR1],2.97 ± 0.12,3.27 ± 0.13,2.99 ± 0.1,3.01 ± 0.087
HSFIKMLQMKGKLLRNY [SIR2],2.19 ± 0.09,2.4 ± 0.12,2.27 ± 0.16,2.15 ± 0.067
KTNKISILKRHSFAVLL [NUT1],2.03 ± 0.11,2.4 ± 0.099,2.19 ± 0.12,1.99 ± 0.075

Sequence,protein stability index (doa10∆),protein stability index (pdr5∆),protein stability index (san1∆),protein stability index (ubr1∆)
EERKRWAMQGISYLQEV [PCI8],3.58 ± 0.19,3.15 ± 0.13,3.12 ± 0.15,3.23 ± 0.11
STGGKAPRKQLASKAAR [HHT1],2.35 ± 0.23,3.35 ± 0.21,3.03 ± 0.1,3.25 ± 0.21
YKVLKNNGLPECQVIAA [YCG1],1.42 ± 0.09,2.1 ± 0.14,1.35 ± 0.16,1.95 ± 0.062
QKSTELLIRKLPFQRLV [HHT1],1.26 ± 0.14,1.12 ± 0.17,1.17 ± 0.21,1.3 ± 0.16
MKLTDLLSLINSTHLLP [SNF12],2.56 ± 0.052,2.57 ± 0.04,2.94 ± 0.05,2.58 ± 0.036
PLLAQLFKTLFKKLTKD [RPB2],2.65 ± 0.04,1.29 ± 0.039,1.18 ± 0.092,1.16 ± 0.03
SDLRVLSGSISERIVDC [FAS1],2.95 ± 0.14,3.45 ± 0.15,3.41 ± 0.087,3.26 ± 0.098
HELREKERISVAAASKI [PRE2],2.67 ± 0.061,2.77 ± 0.049,2.79 ± 0.062,2.22 ± 0.03
FSGKGVHKLRHYLVNLT [GRR1],1.28 ± 0.037,1.44 ± 0.034,1.39 ± 0.07,1.45 ± 0.029
HGNLASCHGHFGHLKLA [RPO31],1.48 ± 0.06,1.45 ± 0.061,1.14 ± 0.1,1.2 ± 0.033
DCRMGNFYIQYDPKDGL [AAR2],2.77 ± 0.054,2.39 ± 0.058,2.31 ± 0.08,2.61 ± 0.037
LGKLQDVFNLLPNLGTP [RPN8],3.06 ± 0.12,3.29 ± 0.089,2.43 ± 0.085,2.82 ± 0.081
FLRQKICLMTLIETVFV [RPN9],1.37 ± 0.12,1.32 ± 0.12,1.06 ± 0.14,1.94 ± 0.28
NQLDGFDDRGDVKVIMA [RPT2],3.47 ± 0.17,3.44 ± 0.27,3.09 ± 0.1,3.52 ± 0.17
SAGRLYACISSRPGQSG [RPS8A],2.81 ± 0.095,3.07 ± 0.093,3.13 ± 0.088,3.03 ± 0.088
IANDNVITPHFITNVQS [SWI1],2.14 ± 0.082,2.68 ± 0.076,2.41 ± 0.092,2.2 ± 0.053
LPLQAQQQLYGGNNNNN [SWI1],3.05 ± 0.064,2.92 ± 0.07,2.68 ± 0.068,2.56 ± 0.045
FLNNGEVDSASDFISKL [RPN3],2.57 ± 0.29,3.33 ± 0.21,2.8 ± 0.27,3.29 ± 0.13
MKNPDVEFCGYSIPHPS [RPC19],2.81 ± 0.082,3.11 ± 0.064,2.94 ± 0.049,3.04 ± 0.085
PKSGIDIFVYLTYDKDL [MTR3],1.9 ± 0.062,1.58 ± 0.052,1.78 ± 0.11,1.7 ± 0.053
LPGDMLAVCDELGNMTM [SIN4],2.76 ± 0.071,2.77 ± 0.072,2.78 ± 0.089,2.66 ± 0.085
LEETRTTIGDTTDKNTT [BRN1],3.2 ± 0.071,3.27 ± 0.059,3.04 ± 0.055,3.17 ± 0.057
SKSAFSFGSKPTGKEEG [YJL041W/NSP1],3.26 ± 0.058,3.34 ± 0.052,3.36 ± 0.069,3.16 ± 0.067
KKLATRPKCGDCGSALQ [RPL34A],2.52 ± 0.12,2.88 ± 0.16,2.31 ± 0.16,2.89 ± 0.12
PMIKAEETPSKTNKISI [NUT1],2.52 ± 0.057,2.8 ± 0.049,2.6 ± 0.06,2.84 ± 0.051
